Measured values from US20210340231A1 (FAPON BIOTECH, published 2021).

Target: T1, CTNI quality control recombinant protein (PK2-CTNI-1, 170120, produced by the applicant) (human, UniProt P19429 2-210, limits assumed)
T1 construct: also called cardiac troponin I
Assay: AMC sensor kinetics, antibody captured, cTnI analyte
Experimental: Using the AMC sensor, the purified antibody was diluted with PBST to 10 μg/ml, and the CTNI quality control recombinant protein (PK2-CTNI-1, 170120, produced by the applicant) was serially diluted with PBST to 400 nmol/ml, 200 nmol/ml, 100 nmol/ml, 50 nmol/ml, 25 nmol/ml, 12.5 nmol/ml, 6.25 nmol/ml, and 0 nmol/ml.

T1 sequence (P19429 2-210 limits assumed): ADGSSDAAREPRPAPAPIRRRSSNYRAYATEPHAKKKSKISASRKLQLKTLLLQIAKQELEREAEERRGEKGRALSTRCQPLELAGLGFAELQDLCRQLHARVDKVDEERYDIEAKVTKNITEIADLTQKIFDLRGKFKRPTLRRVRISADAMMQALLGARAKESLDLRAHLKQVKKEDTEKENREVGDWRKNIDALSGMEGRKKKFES

| Kd | koff | kon | Binder |
| --- | --- | --- | --- |
| 721 pM | 0.000243 s⁻¹ | 337000 M⁻¹ s⁻¹ | Mutation 1-53 (antibody, V domains shown, built as for Mutation 1) VH: EVQLQQSGAELVKPGASVKLSCTASGFNIKDYYMHWMKQRTEQGLDWIGRIDPEDAETKYAPEFQGKATITADTSSNTAYLQLSTLTSEDTAVYYCARYYSSYLPFVYWGQGTLVTASA VL: DVVMTQTPLSLSVSLGDQASISCRSSQSIIYSNRHTYLHWYLQKPGQSPKLLIFQLSNRFSGVPDRFSGSGSGTDFTLKINRVEAEDLGVYFCSQSTHIPYTFGSGTKLEIKR |
| 240 pM | 0.000103 s⁻¹ | 431000 M⁻¹ s⁻¹ | Mutation 1-38 (antibody, V domains shown, built as for Mutation 1) VH: EVQLQQSGAELVKPGASVKLSCTASGFNIKDYYMHWMKQRTEQGLDWIGRIDPEDAETKYAPEFQGKATITADTSSNTAYLQLSTLTSEDTAVYYCARYYSSYIPFVYWGQGTLVTASA VL: DVVMTQTPLSLSVSLGDQASISCRSSQSLIYSNRHTYLHWYLQKPGQSPKLLIFQISNRFSGVPDRFSGSGSGTDFTLKINRVEAEDLGVYFCSQSTHIPFTFGSGTKLEIKR |
| 968 pM | 0.000673 s⁻¹ | 695000 M⁻¹ s⁻¹ | Mutation 1-23 (antibody, V domains shown, built as for Mutation 1) VH: EVQLQQSGAELVKPGASVKLSCTASGFNIKDYYMHWMKQRTEQGLDWIGRIDPEDGETKYAPEFQGKATITADTSSNTAYLQLSTLTSEDTAVYYCARYYSSYIPFVYWGQGTLVTASA VL: DVVMTQTPLSLSVSLGDQASISCRSSQSILYSNRHTYLHWYLQKPGQSPKLLIFQISNRFSGVPDRFSGSGSGTDFTLKINRVEAEDLGVYFCSQSTHIPYTFGSGTKLEIKR |
| 795 pM | 0.000301 s⁻¹ | 378000 M⁻¹ s⁻¹ | Mutation 1-31 (antibody, V domains shown, built as for Mutation 1) VH: EVQLQQSGAELVKPGASVKLSCTASGFNIKDYYMHWMKQRTEQGLDWIGRIDPEDAETKYAPEFQGKATITADTSSNTAYLQLSTLTSEDTAVYYCARYYSSYVPFVYWGQGTLVTASA VL: DVVMTQTPLSLSVSLGDQASISCRSSQSILYSNRHTYLHWYLQKPGQSPKLLIFQVSNRFSGVPDRFSGSGSGTDFTLKINRVEAEDLGVYFCSQSTHIPYTFGSGTKLEIKR |
| 667 pM | 0.000267 s⁻¹ | 400000 M⁻¹ s⁻¹ | Mutation 1-37 (antibody, V domains shown, built as for Mutation 1) VH: EVQLQQSGAELVKPGASVKLSCTASGFNIKDYFMHWMKQRTEQGLDWIGRIDPEDGETKYAPEFQGKATITADTSSNTAYLQLSTLTSEDTAVYYCARYYSSYVPFVYWGQGTLVTASA VL: DVVMTQTPLSLSVSLGDQASISCRSSQSILYSNRHTYLHWYLQKPGQSPKLLIFQVSNRFSGVPDRFSGSGSGTDFTLKINRVEAEDLGVYFCSQSTHLPYTFGSGTKLEIKR |
| 680 pM | 0.000282 s⁻¹ | 415000 M⁻¹ s⁻¹ | Mutation 1-18 (antibody, V domains shown, built as for Mutation 1) VH: EVQLQQSGAELVKPGASVKLSCTASGFNIKDYFMHWMKQRTEQGLDWIGRIDPEDAETKYAPEFQGKATITADTSSNTAYLQLSTLTSEDTAVYYCARYYSSYIPFVYWGQGTLVTASA VL: DVVMTQTPLSLSVSLGDQASISCRSSQSILYSNRHTYLHWYLQKPGQSPKLLIFQISNRFSGVPDRFSGSGSGTDFTLKINRVEAEDLGVYFCSQSTHLPFTFGSGTKLEIKR |
| 408 pM | 0.000259 s⁻¹ | 635000 M⁻¹ s⁻¹ | Mutation 1-24 (antibody, V domains shown, built as for Mutation 1) VH: EVQLQQSGAELVKPGASVKLSCTASGFNLKDYFMHWMKQRTEQGLDWIGRIDPEDAETRYAPEFQGKATITADTSSNTAYLQLSTLTSEDTAVYYCARYYSSYVPFVYWGQGTLVTASA VL: DVVMTQTPLSLSVSLGDQASISCRSSQSLLYSNRHTYLHWYLQKPGQSPKLLIFQVSNRFSGVPDRFSGSGSGTDFTLKINRVEAEDLGVYFCSQSTHIPFTFGSGTKLEIKR |
| 1410 pM | 0.000598 s⁻¹ | 424000 M⁻¹ s⁻¹ | Mutation 1-34 (antibody, V domains shown, built as for Mutation 1) VH: EVQLQQSGAELVKPGASVKLSCTASGFNIKDYFMHWMKQRTEQGLDWIGRIDPEDGETKYAPEFQGKATITADTSSNTAYLQLSTLTSEDTAVYYCARYYSSYIPFVYWGQGTLVTASA VL: DVVMTQTPLSLSVSLGDQASISCRSSQSLLYSNRHTYLHWYLQKPGQSPKLLIFQISNRFSGVPDRFSGSGSGTDFTLKINRVEAEDLGVYFCSQSTHIPYTFGSGTKLEIKR |
